{"source": "paper PMC10418727", "about": "“Structural and Biochemical Insights into Bis(2-hydroxyethyl) Terephthalate Degrading Carboxylesterase Isolated from Psychrotrophic Bacterium Exiguobacterium antarcticum” (International Journal of Molecular Sciences, 2023)", "substrate": "CC(=O)Oc1ccc([N+](=O)[O-])cc1", "assay": "purified protein", "assay_type": "biochemical, Exiguobacterium antarcticum", "conditions": "optimal conditions (optimal pH 7.0), free enzyme"}
{"protein": "EaEst2 (Exiguobacterium antarcticum) (protein, full-length gene in pET-28a (NheI/XhoI), N-terminal 6xHis tag, E. coli BL21(DE3); monomer; catalytic triad Ser93, Asp190, His220; motif GLSLG 91-95) MKITLPKPFFFEGGNRAVLLLHGFTGSSADVRMLGRYLQKHGYTSLAPQYKGHAAPPEELTKTGPADWWQDVLDGYEELKAKGYDEIAVCGLSLGGVMSLRLSMHRPVKAVIPMCAPAYIKSEDVMYAGVTEYAREFKKREGKSVDEIEQEMAVFEPMPTLKDLQALLKETRDSLEDVYAPTLVVQARNDHMINTDSANIIHDGVSALQKELIWYENSGHVITLDKEKETLHQDIHEFLDGLNWSH", "values": [{"measurement": "Km", "value": 590, "unit": "µM"}]}
